Assay results: publication PMC11087270, “CryoEM structures reveal how the bacterial flagellum rotates and switches direction” (Nature Microbiology, 2024)
“And” between values parts separate entries of the source, which are not always exact repeats. Equal entries are not always repeated.

B1: FliF (S. enterica serovar typhimurium), subunit of the MS-ring whose C-terminus (FliFC) lies in the C-ring (natural protein)
chain: MSATASTATQPKPLEWLNRLRANPRIPLIVAGSAAVAIVVAMVLWAKTPDYRTLFSNLSDQDGGAIVAQLTQMNIPYRFANGSGAIEVPADKVHELRLRLAQQGLPKGGAVGFELLDQEKFGISQFSEQVNYQRALEGELARTIETLGPVKSARVHLAMPKPSLFVREQKSPSASVTVTLEPGRALDEGQISAVVHLVSSAVAGLPPGNVTLVDQSGHLLTQSNTSGRDLNDAQLKFANDVESRIQRRIEAILSPIVGNGNVHAQVTAQLDFANKEQTEEHYSPNGDASKATLRSRQLNISEQVGAGYPGGVPGALSNQPAPPNEAPIATPPTNQQNAQNTPQTSTSTNSNSAGPRSTQRNETSNYEVDRTIRHTKMNVGDIERLSVAVVVNYKTLADGKPLPLTADQMKQIEDLTREAMGFSDKRGDTLNVVNSPFSAVDNTGGELPFWQQQSFIDQLLAAGRWLLVLVVAWILWRKAVRPQLTRRVEEAKAAQEQAQVRQETEEAVEVRLSKDEQLQQRRANQRLGAEVMSQRIREMSDNDPRVVALVIRQWMSNDHE
notes: FliF, S. enterica serovar typhimurium, expressed from the fliF gene on plasmid pKLR3; residues 50-428 modelled in the MS-ring and 514-560 (FliFC) in the C-ring; no tag is told; also called MS-ring subunit; source: E. coli BL21-Gold, coexpressed from plasmid pKLR3; MSC-ring particles partially purified by differential membrane extraction
B2: FliN (S. enterica serovar typhimurium), C-ring switch subunit (natural protein, UniProt P26419 1-137, looked up)
chain: MSDMNNPSDENTGALDDLWADALNEQKATTTKSAADAVFQQLGGGDVSGAMQDIDLIMDIPVKLTVELGRTRMTIKELLRLTQGSVVALDGLAGEPLDILINGYLIAQGEVVVVADKYGVRITDIITPSERMRRLSR
notes: FliN, S. enterica serovar typhimurium, expressed from the fliN gene on plasmid pKLR3; residues 45/59/63-137 of the three non-equivalent copies modelled in the C-ring; no tag is told; also called FliNC; FliN1; source: E. coli BL21-Gold, coexpressed from plasmid pKLR3; MSC-ring particles partially purified by differential membrane extraction
B3: FliM (S. enterica serovar typhimurium), C-ring switch subunit (natural protein, UniProt P26418 1-334, looked up)
chain: MGDSILSQAEIDALLNGDSDTKDEPTPGIASDSDIRPYDPNTQRRVVRERLQALEIINERFARQFRMGLFNLLRRSPDITVGAIRIQPYHEFARNLPVPTNLNLIHLKPLRGTGLVVFSPSLVFIAVDNLFGGDGRFPTKVEGREFTHTEQRVINRMLKLALEGYSDAWKAINPLEVEYVRSEMQVKFTNITTSPNDIVVNTPFHVEIGNLTGEFNICLPFSMIEPLRELLVNPPLENSRHEDQNWRDNLVRQVQHSELELVANFADIPLRLSQILKLKPGDVLPIEKPDRIIAHVDGVPVLTSQYGTVNGQYALRVEHLINPILNSLNEEQPK
notes: FliM, S. enterica serovar typhimurium, expressed from the fliM gene on plasmid pKLR3; FliML1 31-50, FliMmid 51-230, FliML2 231-256 and FliMC 257-330 described in the C-ring; no tag is told; also called FliML1; FliMmid; source: E. coli BL21-Gold, coexpressed from plasmid pKLR3; MSC-ring particles partially purified by differential membrane extraction
B4: FliG (S. enterica serovar typhimurium), wild type, C-ring switch subunit (natural protein, UniProt P0A1J9 1-331, looked up)
chain: MSNLSGTDKSVILLMTIGEDRAAEVFKHLSTREVQALSTAMANVRQISNKQLTDVLSEFEQEAEQFAALNINANEYLRSVLVKALGEERASSLLEDILETRDTTSGIETLNFMEPQSAADLIRDEHPQIIATILVHLKRSQAADILALFDERLRHDVMLRIATFGGVQPAALAELTEVLNGLLDGQNLKRSKMGGVRTAAEIINLMKTQQEEAVITAVREFDGELAQKIIDEMFLFENLVDVDDRSIQRLLQEVDSESLLIALKGAEPPLREKFLRNMSQRAADILRDDLANRGPVRLSQVENEQKAILLIVRRLAETGEMVIGSGEDTYV
notes: FliG, S. enterica serovar typhimurium, expressed from the fliG gene on plasmid pKLR3; residues 1-331 modelled in the C-ring; no tag is told; also called FliGD1; FliGD2; source: E. coli BL21-Gold, coexpressed from plasmid pKLR3; MSC-ring particles partially purified by differential membrane extraction
B5: FliG ΔPAA (S. enterica serovar typhimurium), extreme CW-biased mutant (natural protein)
chain: MSNLSGTDKSVILLMTIGEDRAAEVFKHLSTREVQALSTAMANVRQISNKQLTDVLSEFEQEAEQFAALNINANEYLRSVLVKALGEERASSLLEDILETRDTTSGIETLNFMEPQSAADLIRDEHPQIIATILVHLKRSQAADILALFDERLRHDVMLRIATFGGVQLAELTEVLNGLLDGQNLKRSKMGGVRTAAEIINLMKTQQEEAVITAVREFDGELAQKIIDEMFLFENLVDVDDRSIQRLLQEVDSESLLIALKGAEPPLREKFLRNMSQRAADILRDDLANRGPVRLSQVENEQKAILLIVRRLAETGEMVIGSGEDTYV
notes: FliG, S. enterica serovar typhimurium, with the Pro-Ala-Ala (PAA) motif FliG 169-171 deleted; also called switch_(ΔPAA); CW-locked; source: switch particles containing the FliG ΔPAA mutation; expression and purification as told for the FliFGMN subunits (E. coli BL21-Gold, differential membrane extraction)

How the values were obtained:
[1] = molecular target: the molecule itself; assay: cryo-EM structure; wild-type MSC-ring particles (CCW pose); MS-ring or C-ring removed by particle subtraction; C-ring 34-mer at 4.0 Å (33-, 35-, 36-mer classes too), MS-ring 33-mer at 3.4 Å
[2] = molecular target: the molecule itself; assay: cryo-EM structure; MSC-ring particles with FliG ΔPAA (CW pose); C34 symmetry applied, symmetry expansion and local refinement of three staves; 4.6 Å
[3] = molecular target: B3; assay: cryo-EM structure; wild-type MSC-ring particles (CCW pose); MS-ring or C-ring removed by particle subtraction; C-ring 34-mer at 4.0 Å (33-, 35-, 36-mer classes too), MS-ring 33-mer at 3.4 Å; details: both partners purified
[4] = molecular target: B1; assay: as above; details: both partners purified
[5] = molecular target: B1; assay: cryo-EM structure; MSC-ring particles with FliG ΔPAA (CW pose); C34 symmetry applied, symmetry expansion and local refinement of three staves; 4.6 Å; details: both partners purified

Binder	stoichiometry N [1]	binding result [2]	other results
B1	33	–	–
B2	–	binds	stoichiometry N [3]: 3 FliN per FliM
B3	34	–	–
B4	34 and 33 and 35 and 36	–	binding result [4]: binds
B5	–	binds	binding result [5]: binds
